Target: Siglec-10Fc (human) (UniProt Q96LC7)
Experiment: Biacore (SPR): value printed under the KD line for the control Fc with Siglec-10Fc. No curve is drawn for the control Fc.

Chain of UniProt Q96LC7 (Q96LC7 17-546): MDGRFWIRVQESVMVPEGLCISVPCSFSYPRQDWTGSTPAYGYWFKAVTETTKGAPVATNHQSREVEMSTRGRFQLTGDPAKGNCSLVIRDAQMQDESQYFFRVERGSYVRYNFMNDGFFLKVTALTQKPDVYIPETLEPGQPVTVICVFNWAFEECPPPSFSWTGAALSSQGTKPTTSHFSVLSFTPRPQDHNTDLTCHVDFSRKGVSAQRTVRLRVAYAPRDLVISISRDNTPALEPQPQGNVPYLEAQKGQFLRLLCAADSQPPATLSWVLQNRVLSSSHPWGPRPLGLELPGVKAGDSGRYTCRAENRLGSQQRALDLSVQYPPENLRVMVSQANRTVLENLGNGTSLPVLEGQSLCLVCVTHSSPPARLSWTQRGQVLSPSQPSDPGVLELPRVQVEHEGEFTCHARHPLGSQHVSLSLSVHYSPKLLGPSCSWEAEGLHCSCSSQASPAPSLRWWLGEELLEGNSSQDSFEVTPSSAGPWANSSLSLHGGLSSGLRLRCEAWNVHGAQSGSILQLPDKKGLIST

Kd: 16.2 µM
Substance: control Fc

— patent US20200197485A1
